The target in assay [1] is BCL6-3C BTB domain (human BCL6 residues 5-129 with C8Q/C67R/C84N) (human) (UniProt P41182). The assay can be described thus: SPR, biotinylated peptide on streptavidin chip, BCL6-3C BTB domain injected. (In SPR one partner is held on a chip, and binding of the other changes the refractive index at the surface.)
For assay [2], the target named is GAL4-BTB^BCL6 (GAL4 DNA binding domain fused to the wild-type BCL6 BTB domain) (human). In words: cell-based or functional assay.

N-CoR^1351-1383 peptide, biotinylated, immobilised for SPR, sequence (Q60974 1351-1383): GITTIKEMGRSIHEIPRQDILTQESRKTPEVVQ

Substance “N-CoR^1351-1383 peptide, biotinylated, immobilised for SPR” displayed a fold stronger affinity relative to SMRT^1414-1441 in assay [1] of 2.5 fold.
Turning to “full-length BCoR (from UniProt Q6W2J9 1-1721)”, the enhancement of repression in reporter assays in assay [2] was 2 to 3 fold.
